Molecular target: SARS-CoV-2 HexaPro spike protein, wild type (SARS-CoV-2 wild type (GenBank …, UniProt A0A679G9E9, F817 to proline | A892 to proline | A899 to proline | A942 to proline | K986 to …))
Test: BLI
Conditions: both partners purified

B1: S2-E12 (antibody, V domains shown)
VH: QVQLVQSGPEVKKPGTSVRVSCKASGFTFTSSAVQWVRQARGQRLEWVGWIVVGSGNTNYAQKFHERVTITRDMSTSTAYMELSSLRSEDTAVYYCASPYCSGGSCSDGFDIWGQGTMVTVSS
VL: DIVLTQTPGTLSLSPGERATLSCRASQSVSSSYLAWYQQKPGQAPRLLIYGASSRATGIPDRFSGSGSGTDFTLTISRLEPEDFAVYYCQQYVGLTGWTFGQGTKVEIK
B1: binds.
